# Data reported in the nanobody polyreactivity screen of Harvey et al. (2022).
# Test: yeast display, Sf9 membrane polyspecificity reagent, FACS + sequencing; frameworks hold sequencing errors
# Summary of the method: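 Synthetic nanobody libraries on Saccharomyces cerevisiae BJ5465 were galactose-induced for 36–48 hours, stained 1 hour at 4 °C with 10% biotinylated, detergent-solubilized Sf9 membrane reagent and enriched on streptavidin microbeads. FACS then separated cells into low and high (top ~1%) gates by anti-HA (expression) and streptavidin (reagent binding) fluorescence. Genes were colony-PCR amplified, MiSeq 2 × 250 sequenced and CDR-length filtered. A clone's polyreactivity label is that of its gate of origin.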
row,Sequence,polyreactivity (PSR sort gate)
1,QVQLVESGGGLVQAGGSLRLSCAASGRWLYAMGWYIQAHGKERELVAAISRSGGSTNYADSVKGRFTISRDNAKNTVYLQMNSLKPEDTAVYYCAATPYSYYTYQPEGEYWGQGTQVTVSS,low polyreactivity
2,QVQLVESGGGLVQAGGSLRLSCAASGRTLGSYAMGWYRQAPGKETELVAAIRGSGVSTYYADSVKGRFTISRDNAKNTVYLQMNSLNPEDTAVYYCAARSYIRVWKKGAVQRSVYYWGQGTQVTVSS,high polyreactivity
3,QVQLVESGGGLVQAGGSLRLSCAASGSIFLYYVMGWYRQAPGKERELVAAITWDGGSTYYADSVKGRFTISRDNAKNTVYLQMNSLKPEDTAVYYCNADTIVAWFDIFEEMDSWGQGTQVTVSS,low polyreactivity
4,QVQLVESRGGLVQAGGSLRLSCAASGFNFPHYAMGWYRQAPGKERELVAAISKSGDSTYYADSVKARFTISRDNAKNTVYLQMNSLKPEDTAVYYCARRGRSVRWKYDYWGQGTQVTVSS,low polyreactivity
5,QVQLVESGGALVQEGGSLRLSCAASGITFAGNAMGWYRQAPGKERELVATITSDGNTNYAVSVKGRFTISRDNAKNTVYLQMNSLKPEDTAVYYCNAEGENRRDRYDYWGQGTQVTVSS,low polyreactivity
6,QVQLLESGGGLLQAGGSLRLSCAASGRIFKFNAMGWYRQAPGKERELVAAISKRGGSTYYADSVKGRFTISRDNAKNTVYLQMNSLNPEDTAVYYCAAPIYNGYASWQVYYWGQGTQVTVSS,high polyreactivity
7,QVQLVESGGGLVQAGGSLRLSCAASGLTFQYYAMGWYRQAPGKDRELVAAISTSGGSTYYADSVKGRFTISRDYAKNTVYLQMNSLKPEDTAVYYCAARRGSQYWGQGTQVTVSS,high polyreactivity
8,QVQLEESGGGLVQAGGSLRLSCAASGLTFVRYAMGWYRQAPGKERELVAAISSGGSTNYADSVKGRVTISRDNAKNTVYLQMNSLKPEDTAVYYCAARPPRTYWRYQSDYWGQGTQVTVSS,high polyreactivity
9,QVQLVESGGGLVQAGVSLRLSCAASGLTFKWNAMGWYRHAPGKEREFVAAITKRAGSTYYADSVKGRFTISRDNAKNTVYLQMNSLKPEDTAVYYCAADDGYFYARYDYWGHGTQVTVSS,low polyreactivity
10,QVQLQESGGGLVQAGGSLRLSCAASGSIFYKDDMGWYRQAPGKEREFVAGIDRGGTTNCAGSVKGRFTISRDNAKNTVYLQMISLKPEDTAVYYCAAYYPDIYPFIYRGQGTQVTVSS,high polyreactivity
11,QVQLVESGGGLVQAGGILRLSCPASGSTLDRYVMGWYRQAPGKERELVAVISQSGGSTYYADSVKGRFTISRDNAKNTVYLQINSLKPEDTAVYYCAAKRYSFAYRQYDYWGQGTQVTVSS,high polyreactivity
12,QVQLVESGGGLVQAGGSLRLSCAASGLIFTDNTRGWYRQAPGKEREFVADISSSGGITYYADSVKGRFTFSRDNAKNTVYLQMNSLKPEDTAVYYCNAERGYDYLDGYPFFIYDYWGQGTQVTVSS,low polyreactivity
13,QVQLVESGGGLVQAGGSLRLSCAASGRTFPYNAMGWYRQAPGKERELVAAISSGGSTNYADSVKGRFTITRDNAKKTVYLQRNSLKPEDTAVYYCAVTGWPRYTWYSYGYWGQGTQVTVSS,low polyreactivity
14,QVQLVESGGGLVQAGGSLRLSCAASGRTFGDYAMGWYRQAPGKERELVAAITIGGSTYYADSVKGRFTISRDNAKNTVYLQMNSLKPEDTAVYYCAATTYSIPSRYDSWGQGTQVTVSS,low polyreactivity
15,QVQLVESGGGLVHAGGSLRLSCAASGFIFYQYAMGWYRQAPGQERELVAAISKSGGNTNYADSVKGRFTISRDNAKNTVYLQMNSLKPEDTAVYYCAADRGQRGLYYWGQGTQVTVSS,high polyreactivity
16,QVQLVESGGGLVQAGGSLRLSCAASGSTFSFYAMGWYRQAPGKERELVADITSGGSTYYADSVKGRFTISRDNAKNTVYLQMNSLKPEDTAVYYCAKADYGGDYYYQSGGLYYYWGQGTQVTVSS,low polyreactivity
17,QVQLEETGGGLVQAGGSLLLSCEASGLTIHPYAMGWYRHAPGKERELVAAISSRGTSTYYADSVKWRFTISRDTAKNTVYLQMNSLKPEDTAVYYCAARHGPRAEAMYYWGQGPQVTVSS,high polyreactivity
18,QDQHVESGGGLVQAGGSLRLSCAASGNTFIRNVMGWYRLAPGKERELVAGIRTGGSTFYADSVKGRFTISRDNAKNTVYLQMNSLKPEDTAVYYCKAEVGDEGNLPYVIRPMDYWGQGTQVTVSS,low polyreactivity
19,QVQLVESGGGLVQAGGSLRLSCASSGITFILYAMGWYRQAPGKDRELVASITSGGSTDYADSVKGRFTISRDNAKNTVYFQMNSLKPEDTAVYYCAARYVYPYWYGDYYWGQGTQVTVSS,low polyreactivity
20,QDQLVESGGGLDQAGGSLRLSCAASGNIFYSYAMGCYRQAPGKERELVAAISSSGGRTYYADSVKGRFTISRDNAKNTVYLQMNSLKPEDTELYYCNAYVQVMRYLFGRPTVYPYDYWGQGTQVTVSS,high polyreactivity
21,QVQLVESGGGLVQAGGSLRLSCAASGRTFWYYDMGWYRQAPGKERELVATINNVGSTHYADSVKGRFTISRDNAKNNVYLQMNSLKPEDTSVYYCARASYGKMDYWGQGTQVTVSS,high polyreactivity
22,QDHLVESGGGVVQAGGSLRLSCAATGSTIYRYPMGSYRQAPGNERELVAAISTRGGSTYYADSVKGRFTISRDNRKNTVYLQMNSLKPVDTAVYYCAAKCGSPDDYDYWGQGTQVTVSS,high polyreactivity

row,Sequence,polyreactivity (PSR sort gate)
1,QVQLVESGGCLVQAGGSIRLSFAASGSISIRNAMGWYRQAPGTERELVAAISRGGSTYYADSVKGRFTISRDNAKNTVYLQMNSLNPEDTAVYYFATDGGLYYRGREYAFKYFYWGQGTQLTVSS,high polyreactivity
2,QVQVVESGGGLVNAAGSLRLSCAPSVSTSKWYTMGWDRQAPGKERELVAAITGSGGSTFYADSVKGRFTISRDNAKNTVYLQMHSLKQEDTAVYYCAADVYGGGVSFRFRYDSWGQGTQVTVSS,low polyreactivity
3,QVQLVESGGGLVQAGGSLRLSCAASGFTFYWYTMGWYRPAPGKERELVATISGSGGRTYYADSVKGRFTISRDNAKNTVYLQMNSLKPEDSAVYYCNAGRPYKYGYWGQGTQVTVSS,high polyreactivity
4,QVQLVESGGGLVQAGGSLRLSCAASGNTITWNTMGWYRQAPGKERELVAVITSDGSTYYADSVKGRFTISRDNAKNSVYLQMNRLKPEDTSVYYCNALCAEWYPEEDYWGQGTQVTVSS,low polyreactivity
5,QVQLEESGAGLVQAGGSLRLSCAASVSIFRQYAMGWYRQAPGKERELFAAINYSGGKTYYADSVKGRFTISRDNAKNTVYLQLNSLKPEDTAVYYCAADSVRHYWWAYYYWGQVTQVTVSS,low polyreactivity
6,QVQLVESGGGLVQAGGSLRFSCAASGRTITRYAMGWYRQAPGKERELVAAISKRGTRTYYADSVKGRFTISRDHAKNTVYLQMNSLKPADTAVYYCNGAGRWALYYHLYTGFDYWGQGTQVTVSS,high polyreactivity
7,QVQLQEGGGLVQAGGSLRLSCAASGYISSRPAMGWYRQAPGLERAFVATIADGTSTDYADSVKGRFTISRDNAKNTVYLQMYRLQPEDTAVNYCAAAYNTQYYLSYWGQGTQVTVRS,high polyreactivity
8,QVQLVESGGGLVQAGGSLRLSCAASGNTFLPYAMGWYRQPPGKERELVAAISWSGGSTYYADSVKGRFTISRDTAKNTVYLQMNSLKPEDTAVYYCAATPTRRYYRQSAYDYWGQGTQVTVSS,high polyreactivity
9,QVQLVESGGGLVQAGGSLRLSCAASGRTFNTNAMGWYRQAPGKERELVAAISRRSGSTYYADSVKGRFTISRDNAKNTVYLQMNSLKPEDTGVYYCARTAVRKYPYEYWGQGPQVTVSS,high polyreactivity
10,QVQHVESGGGLVQAGGSLRLSCAASGRIFDLYAMGWYRQAPGKERELVAAITSGSTYYADSVKGRFTISRDNAKNTVYLQMNSLKPEDTAVYYCAADLSYWRGGHSRNYWGQGTQVTVSS,low polyreactivity
11,QVQLVESGGGLVQAGGSLRLSCAASGGIFSSYVMGWYRQAPGKERELVAAIRWSGSSTYYADSVKGRFTISRDNAKNTVYLQMNSLKPEDTAVYYCAAYRDYGSYGSWGQGTQVTVSS,high polyreactivity
12,QVQLVESGGGLVQAGGSLRLSCAASGFTFRYYAMGCYRPAPGKERELVAAISSRGGTTYYADSVKGRFTISRDNAKNTVYLQMNSLKPEDTAVYYCAATYAYGRYYGYVYLGDYWGQGTQVTVSS,high polyreactivity
13,QVQLVESGGGLVQAGGSLRLSCAASGFIFSYYVMGWYRQAPGKERELVAGISKRGGSTRYADSVKGRFTISRDNAKNTVYLQMNSLKPEDTAVYYCNRLPYLHFAGRLTNYDYWGQGTQVTVSS,high polyreactivity
14,QVQLVESGGGLVQAGGSLRLSCAASGRIFRYYVMGWYRQAPGKERELVAAISRSGGTTYYADSVKGRFTISRDTATNTVYLQMNSLKREDTAVFYCAAVYGRDPGDYWGQGTQVTVSS,high polyreactivity
15,QVQLVESGGGLVQAGGSLRLSCAASGRTFAGYAMGWYRQAPGKERELVAGISVDDSTTYYADSVKGRFTISRDNAKNTVYLQMNSLKPEDTAVYYCAAEREKTLYYLSRFDYWGQGTQVTVSS,low polyreactivity
16,HVNLVESGGGLVKAGGSLRLTCDASGITFYEYAMGRYRRAPGKELELVAGIRLSGSTTYYADSVKGRFTISRDNSKNTVYLQMHSLKPEDTAVYYCNVDYYSGLYDYDSWGQGTQVTVSS,low polyreactivity
17,QVQLVESGGGLVQAGGSLRLSCAASGRTLYFNAMAWYRQEPGKERELVADISIGGSTYYADSVKGRFTISRDNAKNTVYLQMNSLKPEDTAVYYLATDYLGGGKRYYYWGQGTQVTVSS,high polyreactivity
18,QVQLVESGGGLVQAGGSLRLSCAASGRTIEGNVMGWYRQAPGKERELVAAITRTAGSTYYADSVKGRFTISRDNAKNTVYLQMNSLKPEDTAVYYCAVEGIYRWYDYSWYYTSTYDYWGQGTQVTVSS,low polyreactivity
19,QVQHVESGGGLVQAGGSLRLSCAASGSIFRFYAMGWYRQAPGKERELVAAISWSGGSTYYADSVKGRFTISRDNAKNTVYLQMNSLKPEDTAVYYCNTRYYGGFDSWGQGTQVTVSS,high polyreactivity
20,QVHLVESGGGLVQAGGSLRLSCAASGRTFYIYAMGWYRQAPGKERELVAGIRWSGDSTYYADSVKGRFTISRDNAKNTVYLQMNRLKPEDTAVYYCAADISYELLSYYWYYYWGQGSQVTVSS,high polyreactivity
21,QVQLVESGGGLLQAGGSLRLSCAASGRIFSTNAMGWYRQAPGKERELVAAITNGGNTNYADSVKGRFTISRDNAKITVYLQMNSLKQEDTAVYYCAKAVAYSWVDGYGYEYWGQGTQVTVSS,low polyreactivity
